Results published in patent EP4682166A1 (Guangzhou Enmai Biotechnology Co., Ltd, dated 2026).
Residue numbers refer to the chain shown, from its start. In names and notes the source's numbering stands. Where two headings read alike, the source gives them in different places. One block for each binder: values may come before it.

What was measured:
[1] = biological target: T1, human NMI (N-myc Interacting protein), recombinant protein (human, UniProt Q13287 1-307, limits assumed); assay: ELISA, binding to hNMI
T1 construct: Gene ID: 9111; also called hNMI; antigen
T1 sequence (looked up): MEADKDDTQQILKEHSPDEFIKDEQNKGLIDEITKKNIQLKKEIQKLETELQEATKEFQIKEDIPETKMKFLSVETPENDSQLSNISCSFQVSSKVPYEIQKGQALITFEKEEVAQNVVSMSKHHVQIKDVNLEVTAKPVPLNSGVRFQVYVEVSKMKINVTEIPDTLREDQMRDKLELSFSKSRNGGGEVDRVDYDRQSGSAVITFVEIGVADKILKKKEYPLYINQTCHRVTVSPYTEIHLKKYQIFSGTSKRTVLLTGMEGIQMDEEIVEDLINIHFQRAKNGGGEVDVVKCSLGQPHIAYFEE

[2] = biological target: T1, human NMI (N-myc Interacting protein), …; assay: ELISA EC50 against parent 98G10
[3] = biological target: T1, human NMI (N-myc Interacting protein), …; assay: ELISA, binding to hNMI; remark: listed apart in the source
[4] = biological target: T1, human NMI (N-myc Interacting protein), …; assay: ELISA EC50 against parent 98G10; remark: listed apart in the source
[5] = biological target: T1, human NMI (N-myc Interacting protein), …; assay: ELISA EC50 against parent 240B10-1

- EC50 [1]: 173 pM
- Fold decrease in affinity [2]: 1.05 fold
B1: 98G10-1 (mutated antibody of Table 17-7) (antibody, V domains shown)
VH: QEQLEESGGDLVKPEGSLTLTCTASGFSFSASYWICWVRQAPGKGLEWIACIYGGSSGSAYYASWAKGRFTISKTSSTTVTLQMTSLTAADTATYFCARAGYYNYGSAGDIYPSSFKLWGPGTLVTVSS
VL: DIVMTQTPASVEAAVGGTVTINCQASQSISTALAWYQQKPGQPPKLLIYTASKVASGVPSRFSGSGSGTQFTLTISDLEPADAATYYCQNYYYSSSSITFGGGTEVVVK
notes: also called 98G10 C80P (VL)

- EC50 [3]: 1.49 µg/mL
- Fold decrease in affinity [4]: 48.1 fold
B2: 98G10-H-14 (antibody, V domains shown)
VH: B1 VH with W34D, Y112S
VL: B1 VL with P80C
notes: also called 98G10 W34D, Y112S (VH)

- EC50 [3]: 0.081 µg/mL
- Fold decrease in affinity [4]: 2.61 fold
B3: 98G10-H-12 (antibody, V domains shown)
VH: B1 VH with W34H, Y112S
VL: B1 VL with P80C
notes: also called 98G10 W34H, Y112S (VH)

- EC50 [3]: 0.507 µg/mL
- Fold decrease in affinity [4]: 16.4 fold
B4: 98G10-H-2 (antibody, V domains shown)
VH: B1 VH with W34Y
VL: B1 VL with P80C
notes: also called 98G10 W34Y (VH)

- EC50 [3]: 1.85 µg/mL
- Fold decrease in affinity [4]: 59.7 fold
B5: 98G10-H-5 (antibody, V domains shown)
VH: B1 VH with Y112E
VL: B1 VL with P80C
notes: also called 98G10 Y112E (VH)

- EC50 [3]: 0.311 µg/mL
- Fold decrease in affinity [4]: 10 fold
B6: 98G10-H-9 (antibody, V domains shown)
VH: B1 VH with W34H, Y112L
VL: B1 VL with P80C
notes: also called 98G10 W34H, Y112L (VH)

- EC50 [3]: 1.56 µg/mL
- Fold decrease in affinity [4]: 50.4 fold
B7: 98G10-H-7 (antibody, V domains shown)
VH: B1 VH with W34R, Y112R
VL: B1 VL with P80C
notes: also called 98G10 W34R, Y112R (VH)

- EC50 [3]: 1.86 µg/mL
- Fold decrease in affinity [4]: 60 fold
B8: 98G10-H-10 (antibody, V domains shown)
VH: B1 VH with W34T, Y112R
VL: B1 VL with P80C
notes: also called 98G10 W34T, Y112R (VH)

- EC50 [3]: 0.028 µg/mL
- Fold decrease in affinity [4]: 0.9 fold
B9: 98G10-H-3 (antibody, V domains shown)
VH: B1 VH with Y112R
VL: B1 VL with P80C
notes: also called 98G10 Y112R (VH)

- EC50 [1]: 48.3 pM
- Fold decrease in affinity [2]: 0.29 fold
B10: 98G10-2 (antibody, V domains shown)
VH: B1 VH with T81Y
VL: B1 VL with P80C
notes: also called 98G10 T81Y (VH)

- EC50 [3]: 0.092 µg/mL
- Fold decrease in affinity [4]: 2.97 fold
B11: 98G10-H-6 (antibody, V domains shown)
VH: B1 VH with Y112Q
VL: B1 VL with P80C
notes: also called 98G10 Y112Q (VH)

- EC50 [3]: 1.68 µg/mL
- Fold decrease in affinity [4]: 54.1 fold
B12: 98G10-H-13 (antibody, V domains shown)
VH: B1 VH with W34K, Y112S
VL: B1 VL with P80C
notes: also called 98G10 W34K, Y112S (VH)

- EC50 [3]: 1.59 µg/mL
- Fold decrease in affinity [4]: 51.3 fold
B13: 98G10-H-8 (antibody, V domains shown)
VH: B1 VH with W34D, Y112R
VL: B1 VL with P80C
notes: also called 98G10 W34D, Y112R (VH)

- EC50 [1]: 238 pM
- Fold decrease in affinity [2]: 1.44 fold
B14: 98G10-5 (antibody, V domains shown)
VH: B1 VH
VL: B1 VL with T18R
notes: also called 98G10 T18R/C80P (VL)

- EC50 [3]: 0.082 µg/mL
- Fold decrease in affinity [4]: 2.65 fold
B15: 98G10-H-4 (antibody, V domains shown)
VH: B1 VH with Y112S
VL: B1 VL with P80C
notes: also called 98G10 Y112S (VH)

- EC50 [1]: 177 pM
- Fold decrease in affinity [2]: 1.07 fold
B16: 98G10-4 (antibody, V domains shown)
VH: B1 VH with T23K
VL: B1 VL
notes: also called 98G10 T23K (VH), C80P (VL)

- EC50 [3]: 0.087 µg/mL
- Fold decrease in affinity [4]: 2.81 fold
B17: 98G10-L-1 (antibody, V domains shown)
VH: B1 VH
VL: B1 VL with P80C, Y93R
notes: also called 98G10 Y93R (VL)

- EC50 [1]: 176 pM
- Fold decrease in affinity [2]: 1.06 fold
B18: 98G10-3 (antibody, V domains shown)
VH: B1 VH with T81Y
VL: B1 VL
notes: also called 98G10 T81Y (VH), C80P (VL)

- EC50 [3]: 0.066 µg/mL
- Fold decrease in affinity [4]: 2.13 fold
B19: 98G10-L-3 (antibody, V domains shown)
VH: B1 VH
VL: B1 VL with P80C, Y93Q
notes: also called 98G10 Y93Q (VL)

- EC50 [3]: 0.024 µg/mL
- Fold decrease in affinity [4]: 0.77 fold
B20: 98G10-H-1 (antibody, V domains shown)
VH: B1 VH with W34H
VL: B1 VL with P80C
notes: also called 98G10 W34H (VH)

- EC50 [3]: 0.053 µg/mL
- Fold decrease in affinity [4]: 1.71 fold
B21: 98G10-L-2 (antibody, V domains shown)
VH: B1 VH
VL: B1 VL with P80C, Y93S
notes: also called 98G10 Y93S (VL)

- EC50 [3]: 0.026 µg/mL
- Fold decrease in affinity [4]: 0.84 fold
B22: 98G10-H-11 (antibody, V domains shown)
VH: B1 VH with W34H, Y112R
VL: B1 VL with P80C
notes: also called 98G10 W34H, Y112R (VH)

- Fold decrease in affinity [5]: > 500 fold
B23: 240B10-1 mutant D27K (VH) (antibody, V domains shown)
VH: QSLEESGGRLVTPGGSLTLTCTVSGIKLSSYTMGWVRQAPGKGLEYIGIISGGGRTYYASWAKGRFTISKTSSTTVDLKVTSLTTEDTATYFCARIYTLWGQGTLVTVSS
VL: QVLTQTLASVSAAVGGTVTINCQSSQSVYNNDYLAWFQQKSGQPPKQLIHSASKLASGVPSRFKGSGSGTQFTLTINDVQCDDAATYYCLGGYDCYSADCNVFGGGTEVVVK

- Fold decrease in affinity [5]: > 500 fold
B24: 240B10-1 mutant S30E (VH) (antibody, V domains shown)
VH: B23 VH with K27D, S30E
VL: B23 VL

- Fold decrease in affinity [5]: > 500 fold
B25: 240B10-1 mutant S30A (VH) (antibody, V domains shown)
VH: B23 VH with K27D, S30A
VL: B23 VL

- Fold decrease in affinity [5]: > 500 fold
B26: 240B10-1 mutant S30D (VH) (antibody, V domains shown)
VH: B23 VH with K27D, S30D
VL: B23 VL

- Fold decrease in affinity [5]: > 500 fold
B27: 240B10-1 mutant G52K (VH) (antibody, V domains shown)
VH: B23 VH with K27D, G52K
VL: B23 VL

- Fold decrease in affinity [5]: > 500 fold
B28: 240B10-1 mutant N30E (VL) (antibody, V domains shown)
VH: B23 VH with K27D
VL: B23 VL with N30E

- Fold decrease in affinity [5]: > 500 fold
B29: 240B10-1 mutant S29E (VH) (antibody, V domains shown)
VH: B23 VH with K27D, S29E
VL: B23 VL

- Fold decrease in affinity [5]: > 500 fold
B30: 240B10-1 mutant S30K (VH) (antibody, V domains shown)
VH: B23 VH with K27D, S30K
VL: B23 VL

- Fold decrease in affinity [5]: > 500 fold
B31: 240B10-1 mutant D27P (VH) (antibody, V domains shown)
VH: B23 VH with K27P
VL: B23 VL

- Fold decrease in affinity [5]: > 500 fold
B32: 240B10-1 mutant N30T (VL) (antibody, V domains shown)
VH: B23 VH with K27D
VL: B23 VL with N30T

- Fold decrease in affinity [5]: > 500 fold
B33: 240B10-1 mutant G52R (VH) (antibody, V domains shown)
VH: B23 VH with K27D, G52R
VL: B23 VL

- Fold decrease in affinity [5]: > 500 fold
B34: 240B10-1 mutant S29Q (VH) (antibody, V domains shown)
VH: B23 VH with K27D, S29Q
VL: B23 VL

- Fold decrease in affinity [5]: > 500 fold
B35: 240B10-1 mutant G52Q (VH) (antibody, V domains shown)
VH: B23 VH with K27D, G52Q
VL: B23 VL

- Fold decrease in affinity [5]: > 500 fold
B36: 240B10-1 mutant G52E (VH) (antibody, V domains shown)
VH: B23 VH with K27D, G52E
VL: B23 VL

- Fold decrease in affinity [5]: > 500 fold
B37: 240B10-1 mutant S29D (VH) (antibody, V domains shown)
VH: B23 VH with K27D, S29D
VL: B23 VL
